Assay results reported in PMC2756588.

T1: Abp1, P15891
T1 sequence (P15891 535-592, looked up): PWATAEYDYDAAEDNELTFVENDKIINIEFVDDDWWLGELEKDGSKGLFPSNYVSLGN

T2: Bbc1, P47068
T2 sequence (P47068 1-78, looked up): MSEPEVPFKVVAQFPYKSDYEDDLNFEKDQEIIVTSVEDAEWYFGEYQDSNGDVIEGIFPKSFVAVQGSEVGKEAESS

T3: Boi1, P38041
T3 sequence (P38041 1-86, looked up): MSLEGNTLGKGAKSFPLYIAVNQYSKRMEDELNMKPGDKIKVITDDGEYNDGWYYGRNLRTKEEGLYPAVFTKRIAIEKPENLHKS

T4: Boi2, P39969
T4 sequence (P39969 32-116, looked up): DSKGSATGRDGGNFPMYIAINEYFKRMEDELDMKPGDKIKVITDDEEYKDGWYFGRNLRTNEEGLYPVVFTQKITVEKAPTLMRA

T5: Bud14, P27637
T5 sequence (P27637 247-328, looked up): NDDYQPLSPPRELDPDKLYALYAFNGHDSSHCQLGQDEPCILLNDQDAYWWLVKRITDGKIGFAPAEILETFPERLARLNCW

T6: Bzz1-1, P38822
T6 sequence (P38822 478-572, looked up): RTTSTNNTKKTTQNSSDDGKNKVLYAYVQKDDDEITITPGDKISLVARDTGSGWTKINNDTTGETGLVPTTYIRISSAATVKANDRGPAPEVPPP

T7: Bzz1-2, P38822
T7 sequence (P38822 568-633, looked up): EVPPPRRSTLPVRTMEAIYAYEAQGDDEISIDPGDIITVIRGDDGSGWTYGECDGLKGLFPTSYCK

T8: Cdc25, P04821
T8 sequence (P04821 50-136, looked up): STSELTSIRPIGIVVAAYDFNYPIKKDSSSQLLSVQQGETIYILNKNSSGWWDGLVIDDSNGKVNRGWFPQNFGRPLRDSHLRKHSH

T9: Cyk3, Q07533
T9 sequence (Q07533 1-83, looked up): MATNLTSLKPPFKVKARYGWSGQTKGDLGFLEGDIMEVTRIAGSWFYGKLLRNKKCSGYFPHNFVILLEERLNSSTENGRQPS

T10: Fus1, P11710
T10 sequence (P11710 432-512, looked up): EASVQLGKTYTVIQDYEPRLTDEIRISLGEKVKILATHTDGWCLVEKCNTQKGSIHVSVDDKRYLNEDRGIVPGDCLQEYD

T11: Hof1, Q05080
T11 sequence (Q05080 590-669, looked up): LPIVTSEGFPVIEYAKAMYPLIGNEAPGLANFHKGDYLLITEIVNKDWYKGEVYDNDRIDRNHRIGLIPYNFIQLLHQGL

T12: Hse1, P38753
T12 sequence (P38753 208-285, looked up): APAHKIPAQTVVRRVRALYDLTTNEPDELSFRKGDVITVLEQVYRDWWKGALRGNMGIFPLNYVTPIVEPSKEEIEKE

T13: Lsb1, P53281
T13 sequence (P53281 45-122, looked up): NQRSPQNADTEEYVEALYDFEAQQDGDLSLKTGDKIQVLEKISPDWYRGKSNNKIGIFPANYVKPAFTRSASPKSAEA

T14: Lsb3, P43603
T14 sequence (P43603 385-451, looked up): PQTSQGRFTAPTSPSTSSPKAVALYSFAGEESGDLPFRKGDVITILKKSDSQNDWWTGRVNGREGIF

T15: Lsb4, P32793
T15 sequence (P32793 402-468, looked up): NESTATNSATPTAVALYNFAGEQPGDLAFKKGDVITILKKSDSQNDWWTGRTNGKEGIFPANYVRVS

T16: Myo5, Q04439
T16 sequence (Q04439 1072-1160, looked up): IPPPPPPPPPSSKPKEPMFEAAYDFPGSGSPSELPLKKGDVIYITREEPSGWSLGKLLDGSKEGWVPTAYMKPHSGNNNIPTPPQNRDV

T17: Nbp2, Q12163
T17 sequence (Q12163 103-180, looked up): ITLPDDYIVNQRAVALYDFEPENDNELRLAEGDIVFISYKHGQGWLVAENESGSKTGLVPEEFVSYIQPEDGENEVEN

T18: Pex13, P80667
T18 sequence (P80667 295-386, looked up): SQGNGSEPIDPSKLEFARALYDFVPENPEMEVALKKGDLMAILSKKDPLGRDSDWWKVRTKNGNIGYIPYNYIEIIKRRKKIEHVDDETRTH

T19: Pin3, Q06449
T19 sequence (Q06449 53-122, looked up): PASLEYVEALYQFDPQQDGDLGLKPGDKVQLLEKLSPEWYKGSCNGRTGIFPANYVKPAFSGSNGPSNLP

T20: Sla1-2, P32790
T20 sequence (P32790 60-140, looked up): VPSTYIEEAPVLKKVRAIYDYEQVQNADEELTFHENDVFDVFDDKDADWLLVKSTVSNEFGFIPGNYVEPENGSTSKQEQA

T21: Sla1-3, P32790
T21 sequence (P32790 344-424, looked up): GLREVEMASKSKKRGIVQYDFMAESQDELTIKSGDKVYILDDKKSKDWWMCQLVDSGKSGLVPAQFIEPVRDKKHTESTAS


Tests used:
Experiment in all cases: SPOT array
Abp1, P15891 = target: T1, Abp1, P15891; details: median of control spots 935
Bbc1, P47068 = target: T2, Bbc1, P47068; details: median of control spots 796
Bem1-1, P29366 = details: median of control spots 4282
Bem1-2, P29366 = details: median of control spots 4347
Boi1, P38041 = target: T3, Boi1, P38041; details: median of control spots 1162
Boi2, P39969 = target: T4, Boi2, P39969; details: median of control spots 1161
Bud14, P27637 = target: T5, Bud14, P27637; details: median of control spots 956
Bzz1-1, P38822 = target: T6, Bzz1-1, P38822; details: median of control spots 4446
Bzz1-2, P38822 = target: T7, Bzz1-2, P38822; details: median of control spots 4538
Cdc25, P04821 = target: T8, Cdc25, P04821; details: median of control spots 969
Cyk3, Q07533 = target: T9, Cyk3, Q07533; details: median of control spots 1451
Fus1, P11710 = target: T10, Fus1, P11710; details: median of control spots 1200
GST = details: median of control spots 978
Hof1, Q05080 = target: T11, Hof1, Q05080; details: median of control spots 4086
Hse1, P38753 = target: T12, Hse1, P38753; details: median of control spots 1727
Lsb1, P53281 = target: T13, Lsb1, P53281; details: median of control spots 388
Lsb3, P43603 = target: T14, Lsb3, P43603; details: median of control spots 406
Lsb4, P32793 = target: T15, Lsb4, P32793; details: median of control spots 397
Myo3, P36006 = details: median of control spots 468
Myo5, Q04439 = target: T16, Myo5, Q04439; details: median of control spots 471
Nbp2, Q12163 = target: T17, Nbp2, Q12163; details: median of control spots 357
Pex13, P80667 = target: T18, Pex13, P80667; details: median of control spots 1341
Pin3, Q06449 = target: T19, Pin3, Q06449; details: median of control spots 2171
Rvs167, P39743 = details: median of control spots 2707
Sho1, P40073 = details: median of control spots 1148
Sla1-2, P32790 = target: T20, Sla1-2, P32790; details: median of control spots 712
Sla1-3, P32790 = target: T21, Sla1-3, P32790; details: median of control spots 5475

Bem1-1, P29366, sequence (P29366 55-141): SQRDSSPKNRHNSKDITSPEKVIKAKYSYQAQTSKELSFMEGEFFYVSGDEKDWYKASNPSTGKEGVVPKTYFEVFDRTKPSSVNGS
Sho1, P40073, sequence (P40073 287-367): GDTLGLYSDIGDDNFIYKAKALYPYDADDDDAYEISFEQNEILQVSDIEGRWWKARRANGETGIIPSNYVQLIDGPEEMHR
Rvs167, P39743, sequence (P39743 419-482): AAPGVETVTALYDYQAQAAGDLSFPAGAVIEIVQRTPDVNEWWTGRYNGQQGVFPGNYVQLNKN
Bem1-2, P29366, sequence (P29366 139-227): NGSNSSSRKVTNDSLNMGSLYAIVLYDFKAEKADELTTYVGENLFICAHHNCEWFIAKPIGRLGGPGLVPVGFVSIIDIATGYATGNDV

Binder	SPOT intensity (Abp1, P15891)	SPOT intensity (Bbc1, P47068)	SPOT intensity (Bem1-1, P29366)	SPOT intensity (Bem1-2, P29366)	SPOT intensity (Boi1, P38041)	SPOT intensity (Boi2, P39969)	SPOT intensity (Bud14, P27637)	SPOT intensity (Bzz1-1, P38822)	SPOT intensity (Bzz1-2, P38822)	SPOT intensity (Cdc25, P04821)	SPOT intensity (Cyk3, Q07533)	SPOT intensity (Fus1, P11710)	SPOT intensity (GST)	SPOT intensity (Hof1, Q05080)	SPOT intensity (Hse1, P38753)	SPOT intensity (Lsb1, P53281)	SPOT intensity (Lsb3, P43603)	SPOT intensity (Lsb4, P32793)	SPOT intensity (Myo3, P36006)	SPOT intensity (Myo5, Q04439)	also measured
RPPRPPPKPLHLRTE	692	15	4	458	0	3	0	30	38	0	0	0	0	3	539	266	306	201	121	33	SPOT intensity (Nbp2, Q12163): 86; SPOT intensity (Pex13, P80667): 479; SPOT intensity (Pin3, Q06449): 5; SPOT intensity (Rvs167, P39743): 12; SPOT intensity (Sho1, P40073): 780; SPOT intensity (Sla1-2, P32790): 1; SPOT intensity (Sla1-3, P32790): 43
KDKSRPPRPPPKPLH	339	4	0	0	2	0	0	50	0	2	0	0	0	0	20	7	162	114	104	10	SPOT intensity (Nbp2, Q12163): 2; SPOT intensity (Pex13, P80667): 8; SPOT intensity (Pin3, Q06449): 0; SPOT intensity (Rvs167, P39743): 0; SPOT intensity (Sho1, P40073): 202; SPOT intensity (Sla1-2, P32790): 0; SPOT intensity (Sla1-3, P32790): 1
